The source of these data is US20140314832A1 (SHANGHAI PULMONARY HOSPITAL TONGJI UNIVERSITY SCHOOL OF …, published 2014).

The target of assay [1] is T1, rat pulmonary surfactant protein A (rSP-A), recombinant (rat (Rattus norvegicus), UniProt P08427 21-248, limits assumed). The assay can be described thus: ELISA of purified nanobody on rSP-A, OD450. A general note: ELISA stands for enzyme-linked immunosorbent assay.
In assay [2] the target is T1, rat pulmonary surfactant protein A …. Nature of the assay: indirect phage ELISA on coated rSP-A, OD 450 nm. Here is the method:
(1) Single clonies obtained from the three rounds of selections and grown on 2YTAG plates were inoculated into the 72-well culture plate at 30° C., and cultured with shaking overnight. (2) 400 ul of M13K07 helper phage was put in each well of another 72-well culture plate (labeled P1 Plate) the next day. (3) 40 ul of cultured medium were taken from each well of the Master Plate, which was cultured overnight, and put in each well of the P1 Plate, and incubated at 37° C. with shaking overnight. The culture supernatant was prepared by centrifugation at 1500 g for 20 minutes set aside, and the recombinant antibody was obtained. (4) A 96-well microtiter plate was coated with rSP-A. (5) 160 ul of recombinant antibody was mixed with 40 μL of MPBS, incubated for 20 minutes at room temperature. It was then added to blocked microtiter wells and reacted for 2 hours at 37° C. (6) Washing and adding HRP secondary antibody: HRP-labeled antibody against M13KO7 was diluted 1:4000 in PBS, 200 ul of that was added to each well, and incubated and reacted for 1 hour at 37° C. (7) 200 ul TMB substrate solution was added to each well, incubated at 37° C. for about 45 minutes to develop the image, 100 ul of stop solution was added to each well to stop the development process, and measurements were taken at 450 nm. Preliminary screening was conducted to select positive clones binding to rSP-A ith specificity.

In assay [3] the target is T2, natural SP-A in rat lung tissue (rat, UniProt P08427 21-248).
T2 construct: The immunohistochemistry is done on rat lung tissue; also called natural SP-A in the lung tissue
Nature of the assay: immunohistochemistry (method of Example 6, rat lung tissue).

Assay [4] has as its target T2, natural SP-A in rat lung tissue. The assay can be described thus: immunohistochemistry on rat lung tissue slices, HIS-IgG-HRP secondary. An excerpt:
Fresh tissues from the lung, heart, liver, spleen, kidney, muscle of rat were fixed and sliced, and diluted primary antibody (Nb6, Nb17 for the experimental groups, SPA polyclonal antibody (SPA-poly-ant) as a positive control group, and alliinase as a negative control group) was dropped on. The secondary antibody was HIS-IgG-HRP. […] The binding effect of Nb17 was similar to that of SPA-poly-ant, while Nb6 had weaker binding effect than Nb 17, as there is differneces in the amino acid sequence at the antigen binding region between these two. All three antibodies had no obvious binding effect with rat heart, liver, spleen, kidney, muscle tissues, nor had the negative control group (FIG. 6).

B1: Nb11 (VHH)
VHH: MQAQLAGQLQLVESGGGLVQPGGSLRLSCVVSGVTFNNYGMTWVRQAPGKGLEWISTIYSNGHTYYADFVKGRFTISRDNAKNTLYLQMISLKPEDTAKYYCRLTGETYRGQGTQVTVSSEPKTRKPQGPRGLAAAGAPVPYPDPLEPRAA
notes: Alpaca VHH clone; screened as phage clone; also called N0; 11; rSPA-Nb
As for B1, in assay [1], the “OD450 relative to negative control” value was 5 fold over negative control. Also, the “affinity value relative to negative control” value in assay [2] is 3 fold over negative control. For the same molecule, in assay [3], the binding result is on record as “binds”.

B2: Nb17 (VHH)
VHH: MQAQLAVQLQLVESGGGLVQPGGSLRLSCVVSGVTISNYGMSWVRQAPGKGLEWISTIYSNGHTYSADSVKGRFTISRDNAKNTLYLQMNSLKPEDTAKYYCKLVGETHRGQGTQVTVSSEPKTPKPQGPRGLAAAGAPVPYPDPLEPRAA
notes: Alpaca VHH clone; screened as phage clone, then cloned into PET-30a, expressed in E. coli BL21 (DE3), nickel-purified, 17 kDa, detected with anti-His; also called N0; 17; rSPA-Nb
Regarding B2, in assay [4], the binding result is “binds”.

B3: Nb18 (VHH)
VHH: MQAQLAGQLQLVESGGGLVQPGGSLMLSCVVSGVTISNYGMTWVRQAPGKGLEWISTIYSNGHTYYADSVKGRFTASRDNAKNTLYLQMNSLKPEDTAKYYCKLTGETHRGQGTQVTVSSEPKTPKPQGPRGLAAAGAPVPYPDPLEPRAA
notes: Alpaca VHH clone; screened as phage clone; also called N0; 18; rSPA-Nb
For the molecule B3, in assay [3], the binding result is on record as “binds”.

B4: Nb45 (VHH)
VHH: MQAQLAVQLQLVESGGGLVQAGGSLRLSCVASGSMFNFYGMAWYRQAPGKQRELVASIDSEGRTTNYPDSLKGRFTISRDDAKSTAYLQMNNLIPDDTAVYYCNAFRGRMYDYWGQGTQVTVSSEPKTPKPQGPRGLAAAGAPVPYPDPLEPRAA
notes: Alpaca VHH clone; screened as phage clone; also called N0; 45; rSPA-Nb
For B4, the “affinity value relative to negative control” value in assay [2] is 3 fold over negative control.

B5: Nb9 (VHH)
VHH: MQAQLAGQLQLVESGGGLVQPGGSLRLSCTASEFTLDYHSIGWFRQAPGKEREGVSCISYGDGTTFYTDSVKGRFTISRDNAKNTVTLQMNSLKPEDTAVYYCAASPGRLLLFRLCMSEDEYDFWGQGTQVTVSSEPKTPKPQGPRGLAAAGAPVPYPDPLEPRAA
notes: Alpaca VHH clone; screened as phage clone; also called N0; rSPA-Nb
As to B5, the binding result in assay [3] was “binds”.

B6: Nb19 (VHH)
VHH: MQAQLAGQLQLVESGGGLVQPGGSLRLSCTASEFTLDYHSIGWFRQAPGKEREGVSCISYGDGTTFYTDSVKGRFTISRDNAKNTVTLQMNSLKPEDTAVYYCAASPGRLLLFRLCMSEDEYDFWGQGTQVTVSSEPKTPKPQGPRGLAAAGAPVPYPDPLEPRAA
notes: Alpaca VHH clone; screened as phage clone; also called N0; 19; rSPA-Nb
As to B6, in assay [3], the binding result is given as “binds”.

B7: Nb3 (VHH)
VHH: MQAQLAVQLQLVESGGGLVQPGGSLRLSCVVSGVTFNNYGMSWVRQAPGKGLEWISSIYSNGHTYSADSVKGRFTISRDNANNTLYLQMNSLKPEDTANYYCKLVGETHRGQGTQVTVSSEPNTPKPQGPRGLAAAGAPVPYPDPLEPRAAYTVESCLA
notes: as for B5
B7: in assay [2], the “affinity value relative to negative control” value is 3 fold over negative control.

B8: Nb1 (VHH)
VHH: MQAQLAGQLQLVESGGGLVQPGGSLKLSCTASETTFEIYPMAWYRQAPGKQRELVAGINMISSTKYIDSVKGRFTISRDNDKNTMYLQMNSLKPEDTAVYYCNLDTTMVEGVEYWGQGTQVTVSSAHHSEDPGPRGLAAAGAPVPYPDPLEPRAA
notes: Alpaca VHH clone; screened as phage clone (pCANTAB 5E); also called N0; rSPA-Nb
Consider B8, for which the “affinity value relative to negative control” value in assay [2] was 3 fold over negative control.

B9: Nb47 (VHH)
VHH: MQAQLAGQLQLVESGGGRVQAGGSLTLSCAASGDIFTLASMGWYREDLHKKRELVAQLMSDGTANYGDSVKGRVTISRDDVDTTVHLRMNTLQPSDTGEYFCYIHTSREITWGRGTQVTVSQGESSAPQSSAPQATVSSAHHSEDPGPRGLAAAGAPVPYPDPLEPRAA
notes: Alpaca VHH clone; screened as phage clone; also called N0; 47; rSPA-Nb
Take B9: the “affinity value relative to negative control” value in assay [2] is 3 fold over negative control.

B10: Nb34 (VHH)
VHH: MQAQLAVQLQLVESGGGTVQPGGSLNLSCVTSGFTFSRHDMSWVRQAPGKGPEWISGIGTSGTSGRYASSVKGRFTISRDNAKDTLYLQMDSLKPEDTGLYYCTTGGVYSAYVQPRGKGTQVTVSSAHHSEDPGPRGLAAAGAPVPYPDPLEPRAA
notes: Alpaca VHH clone; screened as phage clone; also called N0; 34; rSPA-Nb
Consider B10, for which the “affinity value relative to negative control” value in assay [2] was 3 fold over negative control.

B11: Nb22 (VHH)
VHH: MQAQLAGQLQLVESGGGLVQPGGSLRLSCAASGRAFSVYAVGWYRQPPGKQRELVASITDGGSTNYADSVKGRFTVSRDNARNTAYLDMNSLKVEDTAVYYCNANYGGSVLYNYWGPGTQVTVSTEPKTPKPQGPRGLAAAGAPVPYPDPLEPRAA
notes: Alpaca VHH clone; screened as phage clone; also called N0; 22; rSPA-Nb
Consider B11, for which the “affinity value relative to negative control” value in assay [2] was 3 fold over negative control.

B12: Nb43 (VHH)
VHH: MQAQLAGQLQLVESGGGLVQIGGSLRLSCAASGSDFSIYHMGWYRQAPGKQRELVAAITSGGSTNYADSVKGRFTISSDNAKNTVYLQMNSLKPEDTAVYYCNADGVPEYSDYASGPVYWGQGTQVTVSSAHHSEDPGPRGLAAAGAPVPYPDPLEPRAA
notes: Alpaca VHH clone; screened as phage clone; also called N0; 43; rSPA-Nb
In the case of B12, the “affinity value relative to negative control” value in assay [2] was 3 fold over negative control.

B13: Nb28 (VHH)
VHH: MQAQLAGQLQLVESGGGLVQPGGSLRLSCEASGFTFDDYAIGWFRQAPGKEREEVSCISHNGGTTNYADSVKGRFSISRDNAKNTVYLQMNGLKPEDTANYYCAGARSGLCVFFELQDYDYWGQGTQVTVSSAHHSEDPGPRGLAAAGAPVPYPDPLEPRAA
notes: Alpaca VHH clone; screened as phage clone; also called N0; 28; rSPA-Nb
Take B13: the “affinity value relative to negative control” value in assay [2] was 3 fold over negative control.

B14: Nb27 (VHH)
VHH: MQAQLAVQLQLVESGGGLVQPGGSLRLSCEVSGSRGSIYFSGWYRQAPGKQRELVASITSGGTTNYADSVKGRFTISRDNAKNTVYLQMNSLKPEDTAVYYCNIGRYGLGGSWGQGTQVTVSSEPKTPKPQGPRGLAAAGAPVPYPDPLEPRAA
notes: Alpaca VHH clone; screened as phage clone; also called N0; 27; rSPA-Nb
As for B14, the “affinity value relative to negative control” value in assay [2] was 3 fold over negative control.

B15: Nb48 (VHH)
VHH: MQAQLAGQLQLVESGGGLVEVGESLRLSCVALGFTLDGYAIGWFRQAPGKEREKISCISSTGDSTNYDDSVKGRFTISRDTAKSTVFLQMNNLIPEDTAIYYCGADLLARCGRVWYFPPDLNYRGQGTQVTVSSAHHSEDPGPRGLAAAGAPVPYPDPLEPRAA
notes: Alpaca VHH clone; screened as phage clone; also called N0; 48; rSPA-Nb
For B15, the “OD450 relative to negative control” value in assay [1] was 5 fold over negative control. In assay [2], the “affinity value relative to negative control” value is 3 fold over negative control. Besides, the binding result in assay [3] was “binds”.

B16: Nb41 (VHH)
VHH: MQAQLAGQLQLVESGGGMVQPGGSLRLSCAASGFIFSRYDMGWVRQTPGKGREWVSGINSGGGRTYYADSVKGRFTISRDDDKATLYLSMDGLKPEDTALYHCVRFTVKTPQGYYYLNDFDYWGQGTQVTVSSEPKTPKPQGPRGLAAAGAPVPYPDPLEPRAA
notes: Alpaca VHH clone; screened as phage clone; also called N0; 41; rSPA-Nb
As to B16, the “affinity value relative to negative control” value in assay [2] was 3 fold over negative control.

B17: Nb36 (VHH)
VHH: MQAQLAVQLQLVESGGGLVQPGGSLRLSCAASGRAFSVYAVGWYRQIPGNQREMVAAISSGGNTKYSDSVKGRFTVSSEPKTPKPQGPRGLAAAGAPVPYPDPLEPRAA
notes: screened as phage clone; also called N0; 36; rSPA-Nb
As to B17, the “OD450 relative to negative control” value in assay [1] is 5 fold over negative control. The “affinity value relative to negative control” value in assay [2] was 3 fold over negative control.

B18: Nb32 (VHH)
VHH: MQAQLAGQLQLVESGGGLVQPGGSLRLSCTASKFHLDSYAVAWFRQTPGKEREAVSFINTSDDVTYFADSVKGRFTISRDNSKNTVYLQMNVLKPEDTSVYVCAAVRSPGPTGPSMQPMWSVPDLYDYWGQGTQVTVSSAHHSEDPGPRGLAAAGAPVPYPDPLEPRAA
notes: Alpaca VHH clone; screened as phage clone; also called N0; 32; rSPA-Nb
For B18, the “OD450 relative to negative control” value in assay [1] is 5 fold over negative control. For the same molecule, in assay [2], the “affinity value relative to negative control” value was 3 fold over negative control. Moreover, the binding result in assay [3] is on record as “binds”.
